Data reported in the supplement of paper PMC9112550, “Optimization of the antimicrobial peptide Bac7 by deep mutational scanning” (BMC Biology, 2022).

Test system: Escherichia coli TOP10
Test: shrunken log2 fold change of peptide-encoding DNA abundance (4.5 h post-induction vs induction); higher = less antimicrobial activity (less host growth inhibition)
Conditions: time post-induction: 4.5 h; library: site-saturation at positions 5, 18, 19, 20
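Further: peptides expressed intracellularly from a pBAD plasmid library in pooled LB shake-flask culture, induced with 0.3% L-arabinose, DNA abundance read by NGS, three biological replicates, DESeq2 with apeglm shrinkage.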

Sequence	shrunken log2 fold change
RRIRWRPPRLPRPRPRPHHHPRP	-0.428
RRIRVRPPRLPRPRPRPTRWPRP	0.173
RRIRRRPPRLPRPRPRPFFTPRP	0.501
RRIRYRPPRLPRPRPRPTGSPRP	0.0529
RRIRYRPPRLPRPRPRPKMCPRP	0.00281
RRIRTRPPRLPRPRPRPFYRPRP	-0.189
RRIRGRPPRLPRPRPRPYIHPRP	-0.252
RRIRCRPPRLPRPRPRPQHEPRP	0.0354
RRIRIRPPRLPRPRPRPAWWPRP	0.0406
RRIRQRPPRLPRPRPRPCKLPRP	-0.167
RRIRGRPPRLPRPRPRPKPEPRP	0.819
RRIRDRPPRLPRPRPRPNASPRP	0.527
RRIRFRPPRLPRPRPRPMWFPRP	-0.0145
RRIRQRPPRLPRPRPRPIYKPRP	-0.12
RRIRPRPPRLPRPRPRPTTSPRP	0.181
RRIRMRPPRLPRPRPRPLTDPRP	1.69
RRIRFRPPRLPRPRPRPYAHPRP	-0.18
RRIRPRPPRLPRPRPRPHSGPRP	-0.169
RRIRFRPPRLPRPRPRPPHKPRP	-0.027
RRIRTRPPRLPRPRPRPFFVPRP	-0.142
RRIRIRPPRLPRPRPRPNPDPRP	-0.659
RRIRHRPPRLPRPRPRPYLFPRP	-0.523
RRIRHRPPRLPRPRPRPHTFPRP	-0.386
RRIRNRPPRLPRPRPRPMFFPRP	-0.189
RRIRFRPPRLPRPRPRPAFSPRP	0.049

Sequence	shrunken log2 fold change
RRIRPRPPRLPRPRPRPQLNPRP	-0.0703
RRIRMRPPRLPRPRPRPMRNPRP	1.62
RRIRLRPPRLPRPRPRPVDAPRP	0.243
RRIRNRPPRLPRPRPRPDNFPRP	-0.00141
RRIRFRPPRLPRPRPRPEVSPRP	-0.149
RRIRIRPPRLPRPRPRPACEPRP	0.17
RRIRTRPPRLPRPRPRPRFMPRP	-0.265
RRIRCRPPRLPRPRPRPYVTPRP	-0.893
RRIRRRPPRLPRPRPRPKGCPRP	0.0288
RRIRVRPPRLPRPRPRPSTLPRP	-0.166
RRIRYRPPRLPRPRPRPDFWPRP	0.125
RRIRERPPRLPRPRPRPIDYPRP	-0.0881
RRIRYRPPRLPRPRPRPKIMPRP	-0.131
RRIRVRPPRLPRPRPRPRNRPRP	-0.338
RRIRNRPPRLPRPRPRPQKIPRP	-0.22
RRIRPRPPRLPRPRPRPDHKPRP	-0.334
RRIRRRPPRLPRPRPRPFVKPRP	-0.373
RRIRERPPRLPRPRPRPQMSPRP	-0.114
RRIRNRPPRLPRPRPRPNWPPRP	0.142
RRIRWRPPRLPRPRPRPRLTPRP	0.307
RRIRNRPPRLPRPRPRPNYRPRP	-0.264
RRIRGRPPRLPRPRPRPCRHPRP	0.0672
RRIRIRPPRLPRPRPRPHIVPRP	-0.0875
RRIRQRPPRLPRPRPRPHVPPRP	-0.0247
RRIRHRPPRLPRPRPRPMRRPRP	0.00585

Sequence	shrunken log2 fold change
RRIRLRPPRLPRPRPRPDDFPRP	-0.0359
RRIRKRPPRLPRPRPRPLRWPRP	1.37
RRIRWRPPRLPRPRPRPQVFPRP	-0.0323
RRIRIRPPRLPRPRPRPCGFPRP	-0.0835
RRIRARPPRLPRPRPRPPRSPRP	1.12
RRIRDRPPRLPRPRPRPKQEPRP	0.00491
RRIRTRPPRLPRPRPRPTTKPRP	-0.0673
RRIRWRPPRLPRPRPRPTLNPRP	0.139
RRIRWRPPRLPRPRPRPYEEPRP	-0.334
RRIRQRPPRLPRPRPRPEKIPRP	2.55
RRIRHRPPRLPRPRPRPHPNPRP	-0.063
RRIRIRPPRLPRPRPRPYTHPRP	-1.09
RRIRKRPPRLPRPRPRPGFYPRP	0.00129
RRIRKRPPRLPRPRPRPWRQPRP	0.182
RRIRSRPPRLPRPRPRPQDFPRP	-0.161
RRIRWRPPRLPRPRPRPINAPRP	0.252
RRIRLRPPRLPRPRPRPKIFPRP	-0.0395
RRIRVRPPRLPRPRPRPPEVPRP	0.0599
RRIRYRPPRLPRPRPRPWMYPRP	-0.00277
RRIRYRPPRLPRPRPRPIEVPRP	-0.217
RRIRWRPPRLPRPRPRPMFQPRP	-0.241
RRIRNRPPRLPRPRPRPEPDPRP	0.0698
RRIRLRPPRLPRPRPRPRDQPRP	0.0949
RRIRDRPPRLPRPRPRPFCEPRP	0.159
RRIRDRPPRLPRPRPRPTHKPRP	-0.0994

Sequence	shrunken log2 fold change
RRIRNRPPRLPRPRPRPRDHPRP	-0.219
RRIRRRPPRLPRPRPRPHKEPRP	0.0317
RRIRCRPPRLPRPRPRPGSSPRP	0.0141
RRIRARPPRLPRPRPRPENMPRP	0.242
RRIRGRPPRLPRPRPRPRGSPRP	0.832
RRIRHRPPRLPRPRPRPAVPPRP	0.0133
RRIRKRPPRLPRPRPRPSFIPRP	-0.262
RRIRTRPPRLPRPRPRPSELPRP	-0.255
RRIRPRPPRLPRPRPRPMWIPRP	-0.237
RRIRQRPPRLPRPRPRPDGMPRP	-0.199
RRIRGRPPRLPRPRPRPEHGPRP	0.602
RRIRFRPPRLPRPRPRPEQHPRP	1.53
RRIRIRPPRLPRPRPRPKCDPRP	-0.352
RRIRCRPPRLPRPRPRPRIGPRP	0.016
RRIRRRPPRLPRPRPRPVNLPRP	0.219
RRIRVRPPRLPRPRPRPCADPRP	-0.101
RRIRWRPPRLPRPRPRPIESPRP	0.467
RRIRNRPPRLPRPRPRPRSEPRP	0.139
RRIRKRPPRLPRPRPRPGGIPRP	0.569
RRIRDRPPRLPRPRPRPGHCPRP	-0.0141
RRIRFRPPRLPRPRPRPSGDPRP	-0.202
RRIRKRPPRLPRPRPRPYAPPRP	-0.241
RRIRIRPPRLPRPRPRPMRKPRP	0.0125
RRIRTRPPRLPRPRPRPWTCPRP	-0.0449
RRIRCRPPRLPRPRPRPIYAPRP	-0.281

Sequence	shrunken log2 fold change
RRIRKRPPRLPRPRPRPLAHPRP	0.551
RRIRFRPPRLPRPRPRPCAKPRP	-0.0688
RRIRQRPPRLPRPRPRPGCNPRP	-0.0136
RRIRYRPPRLPRPRPRPCKKPRP	-0.0222
RRIRPRPPRLPRPRPRPWNDPRP	0.0243
RRIRRRPPRLPRPRPRPLCSPRP	-0.255
RRIRPRPPRLPRPRPRPVQTPRP	0.00686
RRIRNRPPRLPRPRPRPRGLPRP	0.342
RRIRQRPPRLPRPRPRPDNYPRP	-0.194
RRIRSRPPRLPRPRPRPYGMPRP	-0.0661
RRIRVRPPRLPRPRPRPFERPRP	0.0254
RRIRIRPPRLPRPRPRPLYFPRP	-0.961
RRIRDRPPRLPRPRPRPKCCPRP	0.112
RRIRIRPPRLPRPRPRPCRNPRP	-0.604
RRIRNRPPRLPRPRPRPPDYPRP	-0.077
RRIRHRPPRLPRPRPRPHGHPRP	0.219
RRIRFRPPRLPRPRPRPSWMPRP	-0.0113
RRIRWRPPRLPRPRPRPTRQPRP	0.195
RRIRNRPPRLPRPRPRPERDPRP	0.157
RRIRFRPPRLPRPRPRPSHKPRP	-0.121
RRIRQRPPRLPRPRPRPYIDPRP	-0.606
RRIRNRPPRLPRPRPRPSRFPRP	-0.0872
RRIRQRPPRLPRPRPRPIIPPRP	-0.904
RRIRFRPPRLPRPRPRPQRRPRP	-0.177
RRIRFRPPRLPRPRPRPRHFPRP	0.0931

Sequence	shrunken log2 fold change
RRIRYRPPRLPRPRPRPEIFPRP	-0.159
RRIRVRPPRLPRPRPRPGFPPRP	0.141
RRIRGRPPRLPRPRPRPLPIPRP	0.0433
RRIRQRPPRLPRPRPRPCYWPRP	-0.229
RRIRSRPPRLPRPRPRPNQEPRP	0.0169
RRIRIRPPRLPRPRPRPYTVPRP	-1.32
RRIRKRPPRLPRPRPRPKHCPRP	-0.222
RRIRARPPRLPRPRPRPQTVPRP	0.129
RRIRQRPPRLPRPRPRPNQSPRP	-0.0722
RRIRTRPPRLPRPRPRPCDTPRP	-0.116
RRIRDRPPRLPRPRPRPFFNPRP	-0.156
RRIRGRPPRLPRPRPRPEVSPRP	0.372
RRIRVRPPRLPRPRPRPVSMPRP	-0.066
RRIRLRPPRLPRPRPRPFNHPRP	-0.249
RRIRFRPPRLPRPRPRPSKSPRP	-0.123
RRIRYRPPRLPRPRPRPLHDPRP	-0.74
RRIRKRPPRLPRPRPRPYPMPRP	-0.2
RRIRKRPPRLPRPRPRPSTVPRP	-0.159
RRIRSRPPRLPRPRPRPHFHPRP	-0.428
RRIRFRPPRLPRPRPRPWCSPRP	-0.714
RRIRDRPPRLPRPRPRPEKIPRP	0.652
RRIRYRPPRLPRPRPRPQSHPRP	-0.416
RRIRMRPPRLPRPRPRPCYCPRP	-0.289
RRIRKRPPRLPRPRPRPVWVPRP	0.15
RRIRHRPPRLPRPRPRPNITPRP	-0.489
